# Experiments:
# Test in all cases: EMSA
# [1] = molecular target: HAKAI;WTAP;VIRMA (Homo sapiens;Homo sapiens;Homo sapiens) (UniProt Q75N03+Q15007+Q69YN4); conditions: HWV (no ZC3H13); EMSA: 5 nM FAM-RNA, 20 mM HEPES pH 7.5, 100 mM KCl, 10% glycerol, 1 mM DTT, 25 C, 20 min; 8% native PAGE in 1x TBE at 4 C; Kd from loss of free RNA, Hill fit …
# [2] = molecular target: HAKAI;WTAP;VIRMA;ZC3H13 (1106-1668) (Homo sapiens;Homo sapiens;Homo sapiens;Homo sapiens) (UniProt Q75N03+Q15007+Q69YN4+Q5T200); conditions: HWVZ; EMSA: 5 nM FAM-RNA, 20 mM HEPES pH 7.5, 100 mM KCl, 10% glycerol, 1 mM DTT, 25 C, 20 min; 8% native PAGE in 1x TBE at 4 C; Kd from loss of free RNA, Hill fit …
# [3] = molecular target: WTAP;VIRMA (Homo sapiens;Homo sapiens) (UniProt Q15007+Q69YN4); conditions: WV; EMSA: 5 nM FAM-RNA, 20 mM HEPES pH 7.5, 100 mM KCl, 10% glycerol, 1 mM DTT, 25 C, 20 min; 8% native PAGE in 1x TBE at 4 C; Kd from loss of free RNA, Hill fit …
# [4] = molecular target: WTAP;VIRMA;ZC3H13 (1106-1668) (Homo sapiens;Homo sapiens;Homo sapiens) (UniProt Q15007+Q69YN4+Q5T200); conditions: WVZ (no HAKAI); EMSA: 5 nM FAM-RNA, 20 mM HEPES pH 7.5, 100 mM KCl, 10% glycerol, 1 mM DTT, 25 C, 20 min; 8% native PAGE in 1x TBE at 4 C; Kd from loss of free RNA, Hill fit …
# WTAP;VIRMA;ZC3H13 (1106-1668) (Homo sapiens;Homo sapiens;Homo sapiens), sequence (Q15007 whole entry, chain 1 of 3): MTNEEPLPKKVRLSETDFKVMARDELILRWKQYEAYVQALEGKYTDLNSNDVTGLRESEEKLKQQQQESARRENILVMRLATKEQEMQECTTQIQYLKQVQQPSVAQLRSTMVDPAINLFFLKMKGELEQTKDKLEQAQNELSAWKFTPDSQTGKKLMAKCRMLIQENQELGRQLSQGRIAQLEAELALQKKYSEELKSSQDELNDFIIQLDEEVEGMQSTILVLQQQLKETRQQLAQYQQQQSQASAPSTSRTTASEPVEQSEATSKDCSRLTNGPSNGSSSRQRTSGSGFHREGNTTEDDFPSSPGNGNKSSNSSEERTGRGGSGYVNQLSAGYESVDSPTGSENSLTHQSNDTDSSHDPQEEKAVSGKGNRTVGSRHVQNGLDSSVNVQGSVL
# WTAP;VIRMA;ZC3H13 (1106-1668) (Homo sapiens;Homo sapiens;Homo sapiens), sequence (Q69YN4 whole entry, chain 2 of 3): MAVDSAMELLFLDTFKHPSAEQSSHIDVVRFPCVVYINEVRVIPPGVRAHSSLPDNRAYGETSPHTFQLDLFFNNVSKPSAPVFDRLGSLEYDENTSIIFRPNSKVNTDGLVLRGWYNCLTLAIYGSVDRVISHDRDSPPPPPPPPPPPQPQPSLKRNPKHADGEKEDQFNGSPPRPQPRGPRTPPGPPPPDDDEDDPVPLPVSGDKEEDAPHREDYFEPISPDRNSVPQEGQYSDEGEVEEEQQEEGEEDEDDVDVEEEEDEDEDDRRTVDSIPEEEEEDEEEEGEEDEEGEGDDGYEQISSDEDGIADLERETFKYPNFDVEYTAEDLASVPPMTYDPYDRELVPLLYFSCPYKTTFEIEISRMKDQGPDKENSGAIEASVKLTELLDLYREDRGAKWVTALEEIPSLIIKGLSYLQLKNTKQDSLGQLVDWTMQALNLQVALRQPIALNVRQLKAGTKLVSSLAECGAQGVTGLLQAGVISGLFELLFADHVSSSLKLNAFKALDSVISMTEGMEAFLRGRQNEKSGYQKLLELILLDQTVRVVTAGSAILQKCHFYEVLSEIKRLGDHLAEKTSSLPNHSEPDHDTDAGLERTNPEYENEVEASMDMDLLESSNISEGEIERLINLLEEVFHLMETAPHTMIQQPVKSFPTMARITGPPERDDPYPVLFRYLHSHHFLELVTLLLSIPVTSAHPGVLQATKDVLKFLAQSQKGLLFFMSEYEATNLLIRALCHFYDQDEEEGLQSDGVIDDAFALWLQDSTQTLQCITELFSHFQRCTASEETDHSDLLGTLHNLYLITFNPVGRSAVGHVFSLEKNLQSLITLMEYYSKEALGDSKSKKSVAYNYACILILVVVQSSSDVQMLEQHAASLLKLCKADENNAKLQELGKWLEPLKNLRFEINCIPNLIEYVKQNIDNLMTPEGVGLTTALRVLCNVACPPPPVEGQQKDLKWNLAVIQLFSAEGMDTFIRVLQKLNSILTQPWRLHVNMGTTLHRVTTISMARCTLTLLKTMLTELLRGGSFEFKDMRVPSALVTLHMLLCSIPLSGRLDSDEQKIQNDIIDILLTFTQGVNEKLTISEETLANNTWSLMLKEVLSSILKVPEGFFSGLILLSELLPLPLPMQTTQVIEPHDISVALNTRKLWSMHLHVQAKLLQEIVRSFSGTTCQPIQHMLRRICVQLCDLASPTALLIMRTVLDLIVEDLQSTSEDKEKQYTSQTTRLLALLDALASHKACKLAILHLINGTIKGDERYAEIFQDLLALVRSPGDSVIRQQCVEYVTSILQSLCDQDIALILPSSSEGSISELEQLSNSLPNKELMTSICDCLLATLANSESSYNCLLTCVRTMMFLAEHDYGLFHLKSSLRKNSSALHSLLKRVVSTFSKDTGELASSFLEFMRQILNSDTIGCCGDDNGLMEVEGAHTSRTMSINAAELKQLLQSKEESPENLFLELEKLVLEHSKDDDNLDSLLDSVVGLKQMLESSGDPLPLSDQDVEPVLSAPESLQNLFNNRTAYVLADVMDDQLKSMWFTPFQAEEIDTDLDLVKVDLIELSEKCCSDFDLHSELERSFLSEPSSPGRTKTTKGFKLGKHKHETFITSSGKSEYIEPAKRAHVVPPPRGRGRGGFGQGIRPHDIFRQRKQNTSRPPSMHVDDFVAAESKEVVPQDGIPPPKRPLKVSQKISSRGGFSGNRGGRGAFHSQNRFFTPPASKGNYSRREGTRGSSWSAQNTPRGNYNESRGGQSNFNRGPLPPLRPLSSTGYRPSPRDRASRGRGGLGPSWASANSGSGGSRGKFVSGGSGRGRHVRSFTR
# WTAP;VIRMA;ZC3H13 (1106-1668) (Homo sapiens;Homo sapiens;Homo sapiens), sequence (Q5T200 1106-1668, chain 3 of 3): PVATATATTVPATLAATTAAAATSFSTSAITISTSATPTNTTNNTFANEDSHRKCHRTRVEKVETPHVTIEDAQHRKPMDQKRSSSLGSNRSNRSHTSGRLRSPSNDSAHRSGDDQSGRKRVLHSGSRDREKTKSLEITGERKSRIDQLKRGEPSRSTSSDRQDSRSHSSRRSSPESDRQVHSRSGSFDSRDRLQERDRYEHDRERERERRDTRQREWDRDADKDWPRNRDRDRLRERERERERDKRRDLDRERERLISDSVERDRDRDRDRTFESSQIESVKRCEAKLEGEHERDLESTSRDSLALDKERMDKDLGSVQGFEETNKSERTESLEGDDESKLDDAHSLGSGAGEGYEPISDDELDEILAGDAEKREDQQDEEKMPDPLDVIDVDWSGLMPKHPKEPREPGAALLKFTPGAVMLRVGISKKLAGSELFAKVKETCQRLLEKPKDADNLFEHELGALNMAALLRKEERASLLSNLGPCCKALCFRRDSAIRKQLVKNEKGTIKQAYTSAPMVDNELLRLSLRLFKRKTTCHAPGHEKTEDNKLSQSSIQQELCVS
# HAKAI;WTAP;VIRMA;ZC3H13 (1106-1668) (Homo sapiens;Homo sapiens;Homo sapiens;Homo sapiens), sequence (Q75N03 whole entry, chain 1 of 4): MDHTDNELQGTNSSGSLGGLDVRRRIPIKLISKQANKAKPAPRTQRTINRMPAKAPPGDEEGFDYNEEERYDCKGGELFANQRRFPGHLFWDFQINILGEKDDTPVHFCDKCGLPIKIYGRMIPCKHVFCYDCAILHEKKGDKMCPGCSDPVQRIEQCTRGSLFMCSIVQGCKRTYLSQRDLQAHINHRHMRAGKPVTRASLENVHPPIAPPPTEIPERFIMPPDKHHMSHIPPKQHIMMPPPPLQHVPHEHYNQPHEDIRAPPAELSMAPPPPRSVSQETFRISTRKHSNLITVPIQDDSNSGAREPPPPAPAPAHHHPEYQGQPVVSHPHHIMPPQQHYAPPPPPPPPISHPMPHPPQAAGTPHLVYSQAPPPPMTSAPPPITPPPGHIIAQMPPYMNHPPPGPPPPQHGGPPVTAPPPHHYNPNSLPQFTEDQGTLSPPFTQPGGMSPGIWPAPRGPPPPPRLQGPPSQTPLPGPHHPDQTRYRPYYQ
# HAKAI;WTAP;VIRMA;ZC3H13 (1106-1668) (Homo sapiens;Homo sapiens;Homo sapiens;Homo sapiens), sequence (Q15007 whole entry, chain 2 of 4): as the sequence (Q15007 whole entry, chain 1 of 3) above
# HAKAI;WTAP;VIRMA;ZC3H13 (1106-1668) (Homo sapiens;Homo sapiens;Homo sapiens;Homo sapiens), sequence (Q69YN4 whole entry, chain 3 of 4): as the sequence (Q69YN4 whole entry, chain 2 of 3) above
# HAKAI;WTAP;VIRMA;ZC3H13 (1106-1668) (Homo sapiens;Homo sapiens;Homo sapiens;Homo sapiens), sequence (Q5T200 1106-1668, chain 4 of 4): as the sequence (Q5T200 1106-1668, chain 3 of 3) above
# HAKAI;WTAP;VIRMA (Homo sapiens;Homo sapiens;Homo sapiens), sequence (Q75N03 whole entry, chain 1 of 3): as the sequence (Q75N03 whole entry, chain 1 of 4) above
# HAKAI;WTAP;VIRMA (Homo sapiens;Homo sapiens;Homo sapiens), sequence (Q15007 whole entry, chain 2 of 3): as the sequence (Q15007 whole entry, chain 1 of 3) above
# HAKAI;WTAP;VIRMA (Homo sapiens;Homo sapiens;Homo sapiens), sequence (Q69YN4 whole entry, chain 3 of 3): as the sequence (Q69YN4 whole entry, chain 2 of 3) above
# WTAP;VIRMA (Homo sapiens;Homo sapiens), sequence (Q15007 whole entry, chain 1 of 2): as the sequence (Q15007 whole entry, chain 1 of 3) above
# WTAP;VIRMA (Homo sapiens;Homo sapiens), sequence (Q69YN4 whole entry, chain 2 of 2): as the sequence (Q69YN4 whole entry, chain 2 of 3) above
sequence,measurement,setting,value
GGCCCCUCCAUCGUCCACCGCAAAUGCUUCUAGGCGGACUAUGACUUAGUUGCGUUACACCCUUUCUUGACAAAACCUAACUUGCACAGAAAACA [ACTB-1 RNA],Kd,[1],563 nM
same,Kd,[2],214 nM
same,Kd,[3],826 nM
same,Kd,[4],256 nM

# From paper PMC9652331
